Measurements reported in patent US20110118131A1 (published 2011).
Numbering of substitutions follows the chain as printed.

T1: Ep-CAM (UniProt P16422 24-265, limits assumed)
T1 construct: Amine coupled to a CM5 chip in the Biacore assays
T1 sequence (looked up): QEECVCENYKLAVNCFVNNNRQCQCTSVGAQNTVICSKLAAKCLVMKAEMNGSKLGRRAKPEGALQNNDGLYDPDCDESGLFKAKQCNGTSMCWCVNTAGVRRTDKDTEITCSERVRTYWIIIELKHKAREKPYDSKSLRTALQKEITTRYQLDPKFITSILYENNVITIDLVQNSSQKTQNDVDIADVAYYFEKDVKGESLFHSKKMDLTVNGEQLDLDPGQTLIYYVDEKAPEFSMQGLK

B1: ING-1 light chain L99K (Fab, V domains shown)
VH: QIQLVQSGPELKKPGETVKISCKASGYTFTKYGMNWVKQAPGKGLKWMGWINTYTEEPTYGDDFKGRFAFSLETSASTANLQINNLKSEDTATYFCARFGSAVDYWGQGTSVTVSS
VL: DIVMTQAAFSNPVTLGTSGSISCRSSKSLLHSNGITYLYWYLQKPGQSPQLLIYQMSNLASGVPDRFSSSGSGTDFTLRISRVEAEDVGVYYCAQNLEKPRTFGGGTKLEMKR
notes: Fab, periplasmic extract
B2: ING-1 light chain L99R (Fab, V domains shown)
VH: B1 VH
VL: B1 VL with K99R
notes: Fab, periplasmic extract
B3: ING-1 light chain P100S (Fab, V domains shown)
VH: B1 VH
VL: B1 VL with K99L, P100S
notes: Fab, periplasmic extract
B4: ING-1 light chain P100Q (Fab, V domains shown)
VH: B1 VH
VL: B1 VL with K99L, P100Q
notes: Fab, periplasmic extract
B5: ING-1 light chain L99S (Fab, V domains shown)
VH: B1 VH
VL: B1 VL with K99S
notes: Fab, periplasmic extract
B6: ING-1 light chain S32N (Fab, V domains shown)
VH: B1 VH
VL: B1 VL with S32N, K99L
notes: Fab, periplasmic extract
B7: ING-1 light chain R101K (Fab, V domains shown)
VH: B1 VH
VL: B1 VL with K99L, R101K
notes: Fab, periplasmic extract
B8: ING-1 light chain R101N (Fab, V domains shown)
VH: B1 VH
VL: B1 VL with K99L, R101N
notes: Fab, periplasmic extract
B9: ING-1 light chain Y37N (Fab, V domains shown)
VH: B1 VH
VL: B1 VL with Y37N, K99L
notes: Fab, periplasmic extract
B10: ING-1 light chain Y37E (Fab, V domains shown)
VH: B1 VH
VL: B1 VL with Y37E, K99L
notes: Fab, periplasmic extract
B11: ING-1 light chain S57Y (Fab, V domains shown)
VH: B1 VH
VL: B1 VL with S57Y, K99L
notes: Fab, periplasmic extract
B12: ING-1 light chain R101W (Fab, V domains shown)
VH: B1 VH
VL: B1 VL with K99L, R101W
notes: Fab, periplasmic extract
B13: ING-1 light chain Y37Q (Fab, V domains shown)
VH: B1 VH
VL: B1 VL with Y37Q, K99L
notes: Fab, periplasmic extract
B14: ING-1 light chain P100H (Fab, V domains shown)
VH: B1 VH
VL: B1 VL with K99L, P100H
notes: Fab, periplasmic extract
B15: ING-1 light chain R101F (Fab, V domains shown)
VH: B1 VH
VL: B1 VL with K99L, R101F
notes: Fab, periplasmic extract
B16: ING-1 light chain L99Y (Fab, V domains shown)
VH: B1 VH
VL: B1 VL with K99Y
notes: Fab, periplasmic extract
B17: ING-1 light chain T36R (Fab, V domains shown)
VH: B1 VH
VL: B1 VL with T36R, K99L
notes: Fab, periplasmic extract
B18: ING-1 light chain P100D (Fab, V domains shown)
VH: B1 VH
VL: B1 VL with K99L, P100D
notes: Fab, periplasmic extract
B19: ING-1 light chain S28N (Fab, V domains shown)
VH: B1 VH
VL: B1 VL with S28N, K99L
notes: Fab, periplasmic extract
B20: ING-1 light chain L99N (Fab, V domains shown)
VH: B1 VH
VL: B1 VL with K99N
notes: Fab, periplasmic extract
B21: ING-1 light chain R101Y (Fab, V domains shown)
VH: B1 VH
VL: B1 VL with K99L, R101Y
notes: Fab, periplasmic extract
B22: ING-1 light chain P100N (Fab, V domains shown)
VH: B1 VH
VL: B1 VL with K99L, P100N
notes: Fab, periplasmic extract
B23: ING-1 light chain S57Q (Fab, V domains shown)
VH: B1 VH
VL: B1 VL with S57Q, K99L
notes: Fab, periplasmic extract
B24: ING-1 light chain L99Q (Fab, V domains shown)
VH: B1 VH
VL: B1 VL with K99Q
notes: Fab, periplasmic extract
B25: ING-1 light chain R101S (Fab, V domains shown)
VH: B1 VH
VL: B1 VL with K99L, R101S
notes: Fab, periplasmic extract
B26: ING-1 light chain Y37K (Fab, V domains shown)
VH: B1 VH
VL: B1 VL with Y37K, K99L
notes: Fab, periplasmic extract
B27: ING-1 light chain P100E (Fab, V domains shown)
VH: B1 VH
VL: B1 VL with K99L, P100E
notes: Fab, periplasmic extract
B28: ING-1 light chain Q55D (Fab, V domains shown)
VH: B1 VH
VL: B1 VL with Q55D, K99L
notes: Fab, periplasmic extract
B29: ING-1 light chain R101E (Fab, V domains shown)
VH: B1 VH
VL: B1 VL with K99L, R101E
notes: Fab, periplasmic extract
B30: ING-1 light chain P100K (Fab, V domains shown)
VH: B1 VH
VL: B1 VL with K99L, P100K
notes: Fab, periplasmic extract
B31: ING-1 light chain T36D (Fab, V domains shown)
VH: B1 VH
VL: B1 VL with T36D, K99L
notes: Fab, periplasmic extract
B32: ING-1 light chain N33K (Fab, V domains shown)
VH: B1 VH
VL: B1 VL with N33K, K99L
notes: Fab, periplasmic extract
B33: ING-1 light chain Y54D (Fab, V domains shown)
VH: B1 VH
VL: B1 VL with Y54D, K99L
notes: Fab, periplasmic extract
B34: ING-1 light chain R101Q (Fab, V domains shown)
VH: B1 VH
VL: B1 VL with K99L, R101Q
notes: Fab, periplasmic extract
B35: ING-1 light chain R101D (Fab, V domains shown)
VH: B1 VH
VL: B1 VL with K99L, R101D
notes: Fab, periplasmic extract
B36: ING-1 light chain Y37S (Fab, V domains shown)
VH: B1 VH
VL: B1 VL with Y37S, K99L
notes: Fab, periplasmic extract
B37: ING-1 light chain R101H (Fab, V domains shown)
VH: B1 VH
VL: B1 VL with K99L, R101H
notes: Fab, periplasmic extract
B38: ING-1 light chain N33Y (Fab, V domains shown)
VH: B1 VH
VL: B1 VL with N33Y, K99L
notes: Fab, periplasmic extract
B39: ING-1 light chain P100R (Fab, V domains shown)
VH: B1 VH
VL: B1 VL with K99L, P100R
notes: Fab, periplasmic extract
B40: ING-1 light chain Y54E (Fab, V domains shown)
VH: B1 VH
VL: B1 VL with Y54E, K99L
notes: Fab, periplasmic extract
B41: ING-1 light chain Q55E (Fab, V domains shown)
VH: B1 VH
VL: B1 VL with Q55E, K99L
notes: Fab, periplasmic extract

Molecular target: T1, Ep-CAM
Assay: Biacore, Fab periplasmic extract

Binder	fold difference in affinity vs parental ING-1 [fold]	binding result
B1	0.02	–
B2	0.04	–
B3	0.06	–
B4	0.04	–
B5	0.04	–
B6	–	no binding
B7	0.04	–
B8	–	no binding
B9	0.06	–
B10	0.01	–
B11	–	no binding
B12	–	no binding
B13	0.02	–
B14	0.05	–
B15	–	no binding
B16	1	–
B17	–	no binding
B18	0.02	–
B19	–	no binding
B20	2	–
B21	–	no binding

Binder	fold difference in affinity vs parental ING-1 [fold]	binding result
B22	0.05	–
B23	–	no binding
B24	0.02	–
B25	–	no binding
B26	0.02	–
B27	0.06	–
B28	0.05	–
B29	–	no binding
B30	0.03	–
B31	0.05	–
B32	0.7	–
B33	0.03	–
B34	–	no binding
B35	–	no binding
B36	0.09	–
B37	–	no binding
B38	0.8	–
B39	0.05	–
B40	0.05	–
B41	0.05	–
